Experimental data published in patent US20220064310A1 (DEVELOPMENT CENTER FOR BIOTECHNOLOGY, published 2022).
Changes are numbered by the printed parent chain.

B1: B1-Hu(IgG4) (antibody, V domains shown)
VH: EVQLVQSGAEVKKPGATVKISCKVSGYSFTGYNMNWVQQAPGKGLEWMGNIDPYYGGTTYNQKFKGKATLTVDKSTSTAYMELSSLRSEDTAVYYCARRGDYSGSSYWYFDVWGQGTLVTVSS
VL: DIQMTQSPSSLSASVGDRVTITCKASDHINNWLAWYQQKPGKAPKLLLYGATSLETGVPSRFSGSGSGTDYTLTISSLQPEDFATYYCQQYWSTPFTFGQGTKVEIK
notes: an IgG1 and an IgG4 form
B2: B1-Hu(IgG1) (antibody, V domains shown)
VH: B1 VH
VL: B1 VL
notes: an IgG1 and an IgG4 form
B3: humanized AB21 B1-Hu (AB21 VHB1 with Hu AB21 VL) (antibody, V domains shown)
VH: B1 VH
VL: B1 VL
notes: Human IgG from vector pTCAE8-AB21 in FreeStyle 293 cells, kappa light chain; also called heavy chain B1 combined with light chain Hu
B4: humanized AB21 Hu-Hu (Hu AB21 VH with Hu AB21 VL), the initial humanized antibody (antibody, V domains shown)
VH: B1 VH with K67R, A68V, L70I, V72A, K74T, S77D, R98T
VL: B1 VL
notes: Human IgG from vector pTCAE8-AB21 in FreeStyle 293 cells, kappa light chain (anti-kappa HRP detection); also called heavy chain Hu combined light chain Hu
B5: humanized AB21 B1-B1 (AB21 VHB1 with AB21 VLB1) (antibody, V domains shown)
VH: B1 VH
VL: B1 VL with V15L, Y49S
notes: Human IgG from vector pTCAE8-AB21 in FreeStyle 293 cells, kappa light chain; also called heavy chain B1 combined with light chain B1
B6: humanized AB21 B2-Hu (Hu AB21 VHB2 with Hu AB21 VL) (antibody, V domains shown)
VH: B1 VH with T17S, Q38K, M48I
VL: B1 VL
notes: Human IgG from vector pTCAE8-AB21 in FreeStyle 293 cells, kappa light chain
B7: M-M(IgG4) (antibody, V domains shown)
VH: EVQLQQSGPELEKPGASVKISCKASGYSFTGYNMNWVKQSNGKSLEWIGNIDPYYGGTTYNQKFKGKATLTVDKSSSTAYMQLKSLTSEDSAVYYCARRGDYSGSSYWYFDVWGAGTTVTVSS
VL: DIQMTQSSSYLSVSLGGRVTITCKASDHINNWLAWYQQKPGNAPRLLISGATSLETGVPSRFSGSGSGKDYTLSITSLQTEDVVTYYCQQYWSTPFTFGSGTKLEIK
notes: an IgG1 and an IgG4 form
B8: AB21 M-M (mouse heavy chain variable region with mouse light chain variable region, recombinant) (antibody, V domains shown)
VH: B7 VH
VL: B7 VL

Assays:
[1] = target: T1, CSF-1R-ECD-human Fc (in house) (human, UniProt P07333 20-512); test: ELISA, coated CSF1R-ECD-hFc 1 ug/ml, anti-kappa HRP, one site specific binding fit (GraphPad Prism)
T1 construct: In-house fusion; also called CSF-1R-ECD-hFc; CSF1R-ECD-hFc; not shown: human Fc
Method: (§1) To know the binding affinity differences among individual antibodies, ELISA method was used. ELISA plate was coated with 1 μg/ml of CSF1R-ECD-hFc, then add assay antibodies diluted from 50 nM to 1×10⁻⁵ nM (5-10× fold dilution). Assay was measured by adding anti-kappa HRP secondary antibody (1:5000 dilution). Binding curve and KD were determined with GraphPad Prism software using one site-specific binding for nonlinear fit methods. […] This loss of avidity was recovered by back mutations, as evidenced by humanized antibodies B1-Hu, B2-Hu, B1-B1, and B2-B1 clones. (See FIG. 11 and FIG. 12).

[2] = target: T1, CSF-1R-ECD-human Fc (in house); test: ELISA, coated CSF1R-ECD-hFc 1 ug/ml, anti-kappa HRP, OD450
Method: as §1

[3] = target: T1, CSF-1R-ECD-human Fc (in house); test: ELISA, CSF1R-ECD-hFc coated at 1 ug/ml, anti-kappa HRP, one site-specific binding fit
Method: as §1

[4] = target: T1, CSF-1R-ECD-human Fc (in house); test: ELISA, CSF1R-ECD-hFc coated at 1 ug/ml, anti-kappa HRP
Method: as §1

T1 sequence (P07333 20-512): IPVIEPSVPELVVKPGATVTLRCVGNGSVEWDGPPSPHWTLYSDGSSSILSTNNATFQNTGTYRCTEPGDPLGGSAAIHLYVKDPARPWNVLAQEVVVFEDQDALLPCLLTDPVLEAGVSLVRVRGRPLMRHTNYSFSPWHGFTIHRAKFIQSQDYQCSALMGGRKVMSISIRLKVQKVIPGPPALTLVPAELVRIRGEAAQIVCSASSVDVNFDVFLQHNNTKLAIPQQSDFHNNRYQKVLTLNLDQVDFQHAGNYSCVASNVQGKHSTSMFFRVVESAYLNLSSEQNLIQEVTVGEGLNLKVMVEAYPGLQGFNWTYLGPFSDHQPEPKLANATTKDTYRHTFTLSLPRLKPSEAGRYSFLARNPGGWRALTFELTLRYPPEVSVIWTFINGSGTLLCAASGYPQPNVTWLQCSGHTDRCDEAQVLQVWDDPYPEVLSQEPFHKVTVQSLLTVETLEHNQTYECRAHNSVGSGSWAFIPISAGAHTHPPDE

Bmax [1] | Kd [3] [nM] | other results | Binder
3.19 | – | – | B1
– | – | EC50 (read off the curve) [2]: ~0.04 nM | B2
– | 0.0958 | – | B3
– | 83 | fold lower affinity than the original mouse antibody (M-M) [4]: ~1000 fold | B4
– | 0.0558 | – | B5
3.17 | – | EC50 (read off the curve) [2]: ~0.08 nM | B6
3.2 | – | – | B7
– | 0.0936 | – | B8
